Source: PMC2927863

T1: GST-NHR-6 (DBD+LBD) (Caenorhabditis elegans, UniProt P41829 260-619)
T1 sequence: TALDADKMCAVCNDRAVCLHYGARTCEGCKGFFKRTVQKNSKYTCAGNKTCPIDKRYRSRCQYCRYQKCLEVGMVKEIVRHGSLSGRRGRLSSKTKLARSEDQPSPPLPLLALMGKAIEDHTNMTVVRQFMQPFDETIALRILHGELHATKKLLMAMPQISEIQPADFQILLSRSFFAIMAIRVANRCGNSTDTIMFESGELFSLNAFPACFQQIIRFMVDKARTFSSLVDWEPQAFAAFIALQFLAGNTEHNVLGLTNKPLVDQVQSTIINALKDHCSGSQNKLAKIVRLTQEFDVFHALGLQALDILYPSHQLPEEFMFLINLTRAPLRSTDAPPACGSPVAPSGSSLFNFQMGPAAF

T2: GST-NHR-6 (C288S) (Caenorhabditis elegans, UniProt P41829 260-619, C288S)
T2 sequence: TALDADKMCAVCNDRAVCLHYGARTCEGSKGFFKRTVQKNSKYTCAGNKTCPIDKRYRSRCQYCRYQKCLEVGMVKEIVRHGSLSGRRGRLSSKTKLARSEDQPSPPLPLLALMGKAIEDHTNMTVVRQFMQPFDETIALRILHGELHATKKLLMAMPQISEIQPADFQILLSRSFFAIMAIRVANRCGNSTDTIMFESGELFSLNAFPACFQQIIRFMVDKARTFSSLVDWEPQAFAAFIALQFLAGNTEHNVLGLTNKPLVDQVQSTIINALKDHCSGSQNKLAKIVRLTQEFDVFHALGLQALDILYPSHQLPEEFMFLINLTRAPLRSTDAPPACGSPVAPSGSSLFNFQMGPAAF


Key:
GST-NHR-6 (DBD+LBD) [1] = target: T1, GST-NHR-6 (DBD+LBD); assay: EMSA
GST-NHR-6 (C288S) = target: T2, GST-NHR-6 (C288S); assay: EMSA
GST-NHR-6 (DBD+LBD) [2] = target: T1, GST-NHR-6 (DBD+LBD); assay: competition

Row | Binder | binding result (GST-NHR-6 (DBD+LBD) [1]) | binding result (GST-NHR-6 (C288S)) | binding result (GST-NHR-6 (DBD+LBD) [2])
1 | NBRE 26-mer (dsDNA) DNA 1: GAGTTTTAAAAGGTCATGCTCAATTT DNA 2: AAATTGAGCATGACCTTTTAAAACTC | binds | no binding | –
2 | mutant NBRE 26-mer (dsDNA) DNA 1: GAGTTTTACCAGGTCATGCTCAATTT DNA 2: AAATTGAGCATGACCTGGTAAAACTC | – | – | no binding
